Experiment: yeast display, Sf9 membrane polyspecificity reagent, FACS + sequencing; frameworks hold sequencing errors
In short: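 Galactose-induced (36–48 hours) yeast carrying a synthetic nanobody display library were exposed to 10% biotinylated, detergent-solubilized Sf9 membrane reagent at 4 °C for 1 hour. FACS followed streptavidin microbead enrichment, using low and high (top ~1%) gates for expression (anti-HA) and reagent binding (streptavidin). Colony PCR, MiSeq 2 × 250 sequencing and CDR-length filtering followed. Labels for polyreactivity reflect the gate of origin.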

Sequence	polyreactivity (PSR sort gate)
QVQLVESGGGLVQAGGSLRLSCAASGFTFFVSAMGWYRQAPRKERELVAVITSGGTTNYADSVKGRFTISRDIAKKTVYLQMNSLKPEDTAVYYCNGRGEKRGYYYWGQGTQVSVSS	high polyreactivity
QVQLVESGGGLVQAGGSLRLSCAASGSIFVYNTMAWYRPAPVKERELVAAISSSGGSTYYADSVKGRFTISRDNAKNTVYLQMNSLKPEDTAVYYCAKGPLYSLFFQLDAPYRYGYWGQGTQVTVSS	low polyreactivity
QVQLVESGGGIVQAGGSLRLSSAASGRIFRYYAMGWYRQAPGKERQLVAAISGSGGITYYADSVKGRFTISRDNAKNTVYLQLNRLKPEDTAVYYCAARYGIRPSVSGGYWGQGTQVTVSS	high polyreactivity
QVQLVESGGGLVQAGGSLRLSCAASGIIFGTYAMGWYRQAPGKERELVASITNGGNTNYADSVKGRFTISRDNAKNTVYLQMNSLKPEDTAVYYCAKDVPYWRPVVRYDYWGQGTQVTVSS	low polyreactivity
QVQLEESGGGLVQAGGSLRLSCAASGSIIYAYAMGWSRQAPGKERELVDGIRDGGSTYYADSVKWRFTISRDNAKNTVYLQMNSLKPADTAVYYCAAGPRIRDDYWGQGTQVTVSS	low polyreactivity
QVQLVDSGGGLDQAGGSLRLSCAASGSIFVSEYDMVWYIQAPGKERELVARSRWSSGSTYYADSVKGRFSISRDYAKNTVYVQMNSLKPEDTAVYYCNTVRTRERTDYDYWGQGTQVTVSS	low polyreactivity
QVQLVESGGGLVQAGGSLRLSCAASGRTFDRYAMGWYRQAPGKERELVATISRRSSITYYADSVKGRFTISRDNAKNTVYLQMNRLKPEDTAVYYCAATSLYPTWRRGYDYWGQGTQVTVSS	high polyreactivity
QVQLVESGGGLVQAGGSLRLSCAASGITFTGYAMGWYRQAPGKERELVAAITWSSGSTYYADSVKGRFTISRDNAKNTVYLQMNSLKPEDTAVYYCNAGYWYDGPDYIPEYDYWGQGTQVTVSS	low polyreactivity
QLQHVESGGGLVQAGGSLRLSCAASGSTFYRNAMGWYRQAPGKDRELVAAISRGSRTYYADSVKGRFTISRDNAKNTVYLQMNSLKPEDTAVYYCAALYGSRSTYHMDDYWGQGTQVTVSS	high polyreactivity
QVQLVESGGGLVQAGGSLRLSCAASGSTFTSYTMGWYRQAPGKERELVARNTRGGGSTYYADSVKGRFTISRDNAKNTVYLQMNSLKPEDTAVYYCAKQVVGRAYYSWGQGTQVTVSS	low polyreactivity
QVQLVESGGGLLRAGGSLRLICADSAFVNYVMGWYRQAPGKERELVAAISKGGGRTYYADSVKGRFTISRDNAKNTVYLQMNSLKPEVTAVYYCNADGGLPKYDYWGQGTQVTVSS	high polyreactivity
QVQLVESGGGLDQAGGSLRLSCAASVSTFLVNTMGWYRQAPGKEREFVAAYADSVKGRFTISRDNAKNTVYLQMNSLKPEYTAVYYCNAGGSEIYRSPFDYWGQGTQVTVSS	low polyreactivity
QVQLVESGGCLVQAGGSLRLSCAASGFTFGPYDMGWYRQAPGKERELVAVIIGGDSTNYADSVKGRFTISRDNAKNTVYLQLNSLKPEVTAVYYCAADYIDRVGWMDYWGQGTQVTVSS	low polyreactivity
QVQLVESGGGLVQAGGSLRLSCAASGYIFSDNTMGWYRPAPGKERELVAVITSGTSTSYADSVKGRFTISRDNAKNTVYLQMNSLKPEDTAVYDCARESVTYFWYYTPEVDYWGQGTQVTVSS	low polyreactivity
QVQLVESGGGLVQAGGSLRLSCAASGITFKGNAMGWYRQAPGKERELVAVITWSGGSTYYADSVKGRFTISRDNAKNTVYLQMNSLKPEDTAVYYCAKPWIYGDSQYDYWGQGTQVTVSS	low polyreactivity
QVQLVESAGGLVQAGGSLSLICAASGIIFGGNAMGWSRQAPGKERELVAAISRSGGSTYYADSVKGRFTISRDNAKNTVYLQMTSLKPEDTAVYYCNAYYRYFRSIYDSCGQGTQVTVSS	high polyreactivity
QVQLVESGGGLVQAGGSLRLSCAASGRIFLQNAMGWYRQAPWKERELVASISSSGGTTYYADSVKGRFTISRDNAKNTVYLQMNSLKPEDTAVYYCAADYGHYSTPMDYWGQGTQVTVSS	low polyreactivity
QVQLVESGGGLVQAGGSLRLSCAASGRTFRYYAMGWYRQAPGKERELVASITSGGRTYYADSVKGRFTISRDNAKNTVYLQMNSLKPEDTAVYYCAADRFGIGGKRGNDYWGQGTQVTVSS	high polyreactivity
QVQLVESGGGLVQAGGSLRLSCAASGRIFSRYTMGWYRQAPGKERELVATIRISGGNTYYADSVKGRFTISRDNAKNTVYLQMNSLKPDDTAVYYCAARYGWVQNTYTMYFWGQGTQVTVSS	high polyreactivity
HVQLVESGGGLVQAGGSLRLSCAASGSIFAQYAMGWYRQAPRKDRELLAAISRSTGRTYYADSVKGRFTISRDNAKNTVYLQMNSLKPEDNAVYYWNVVANRALSRSGYDYWGQGTQVTVSS	high polyreactivity
QLQLVESGGGLVQAGGSLRLSCAASGSLFYVYAMGWYRAATGKERELVAAISDDGDTYYADSVKGRFTISRDHEKNTVYLQMNSLKPEDTEVYFCAAEGGANEENSSPEYDYWGLGTQVTVSS	low polyreactivity
QVQLVESGVGLVQAGGSLRLSCAASGYIFFGNAMGWYRQAPGKERELVAAIRWRGTSTYYADSVKGRFTISRDNAKNTVYLQMNSLKPEDTAVYYCAADVVRSNFYGTFLYDYDYWGQGTQVTVSS	low polyreactivity

Sequence	polyreactivity (PSR sort gate)
QVQLVESGGGLVQAGGSLRLSCAASGSTYYRYDMGWYRQAPGKERELCAAINWNGGTTYYADSVKGRFTISRDNAKNNVYLQMNSLKPEDTAVYYCTARSNSYVYPRLYNYWGQGTQVTVSS	high polyreactivity
QVQLVESGGGLVQAGGSLRLSCAASGRTFSGYAMGWYRQAPGKERELVAAINYSDGSTYYADSVKGRFTISRDNAKNTVYLQMNSLKPEDTAVYYCNKVYRYVRYAYDYWGQGTQVTVSS	high polyreactivity
QVQLVESGGGLVQAGGSLRLSCAASGRIFTIYAMGWYRQAPGKERELVATISSNVGSTYYADSVKGRFTISRDNAKNTVYLQMNSLKPEDTAVYYCAATRRAGFTTAKFDYWGQGTQVTVSS	high polyreactivity
QVQLVESGGGLVQAGGSLRLSCAASGSIFYSNAMGWYRQAPGKERELVAAITSSGGITRYADSVKGRFTISRDNAKNTVYLQMNSLKPEDTAVYYCAKDIRVYASDYWGQGTQVTVSS	low polyreactivity
QVQLVESGGGLVQAGGSLRLSCAASGSTFPFNAMGWYRQAPGKERELVAVITYSGGSTYYADSVKGRFTISRDNAKNTVYLHMNSLKPVVTAVYYCAADVYYWGSTYYYWGLGTQVTVSS	high polyreactivity
QVQLVESGGGLVQAGGSLRLSCAASGSIFTYYAMGWYRQAPGKERELVAAISSDGSTTYADSVKGRFTISRDNAKNTVYLQMNSLKPEDTAVLLLQRSGLRRSGVWFDYWGQGTQVTVSS	low polyreactivity
QVQLVETGGGLVQAGGSLRLSCAPSGLSIGYYAMGWYRQAPGKEREFVAAITWNGGSTYADSVKGLFTISRDNAKNTVYLQMNSLKPEDTAVYYCAADLSYWDDFDYWGQGTQVTVSS	low polyreactivity
QVQLVESGGGLVQAGGSLRLSCAASGSILPYNAMGWYRQAPGKERELVCSSSRGGGTNYADSVKGRFTISRDNAKNTVYLQMNSLKPEDTAVYYCAARTLRVDYDSHWYSLVDYWGQGTQVTVSS	low polyreactivity
QVQLVESGGGLVQAGGSLRLSCAASGSTLGKYAMGWYRQAPGKERELVARITLNGGRTYYADSVKGRFTISRDNAKNTVYLQMNSLKPEDTAVYYCAKSLPHSTSRDYWGQGTQVTVSS	low polyreactivity
QVQLVESGGGLVQAGGSLRLSCAASGFTFRVNAMGWYRQAPGKERELVAAISSGGGITYYADSVKGRYTISRDNAKNTVYLQMNSLKPEDTAVYYCAARENRYLERDYWGQGTQVNVSS	low polyreactivity
QVQLVESGGGLVQAGGSLRLTCAASGSIFNGNAMGWYRQAPGKERELVAAISNVGRTDYADSVKGRFTISRDNAKNTVYLQMNSLKPEDTAVYYCAAGVYSGYNRYFAPRSWFGYYYWGQGTQVTVSS	low polyreactivity
QVQLVESGGGLVQAGGSLRLSCAASGSIFYNALGWYRQAPGKERELVASISWSGGTSTYYADSVKGLFTISRDNAKNTVYLQMNSMKPEDTAVYYCAKASRYSSYWMYYWGQGTQVTVSS	high polyreactivity
QVQLVESGGRLVQAGGSLRLSCAASGSIFNRYAMGWYRQAPGKERELVARITNRSGNTYYADSVKGRFTISRANAKNTVYLQMNSLKPEDTAVYYCAATKSLGRYNMDYWGQGTQVTVSS	low polyreactivity
QVQLVESGGGLVQAGGSLRLSCAASGRISTFYAMGWYRQAPGKERELVAGIRWRGGSTYYADSVKGRFTISRDNAKNTVYLQMNSLKPEDTAVYYCNAVPRRRRYSRLGYWGQGTQVTVSS	high polyreactivity
QVQLQESGGGLVQAGGSLLLSCAASGTICDSGLMGWYRQAPGKERELVDVISSGGITNYADSVKGRYTISRDNAKNTVYMQMNSLKPEDTAVYWGQGPQVTVSS	low polyreactivity
QVQLQERAAWCRRAGSLRLSCAASGNISDYYFMGWYRQAPGKERELVAAIAPGSNTYYADSVKGRFTISRDNAKNTVYLQMNSLKPEDTAVCFCGANSTQYTWFDYWGQGTQVPVSS	low polyreactivity
QVQLVESGGGLVQAGGSLRLSCAASGSTFGFNAMGWYRQAPGKERELVAAISRSGGSTYYADSVKGRFTISRDNAKNTVYLQMNSLKPEDTAVYYCAVGYRYLKWVDYWGQGTQVTVSS	high polyreactivity
QVQLVESGGGLVQAGGSLRLSCAASGRIFVGYAMGWYRQAPGKEREFVAAITIGGTDTYYADSVKGRFTISRDNAKNTVYLQMNSLKPEDTAVYYCNADLLYPYDFDYWGQGTQVTVSS	low polyreactivity
QVQLVESGGGLVQAGGSLRLSCAASGSTYENAMGWYRQAPGKERELVAVISRSGGSTYYADSVKGRFTISRDNAKNTVYLQMNSLKPEDTAVYYCATVYSAWSWVHGYYVAMDYWGQGTQVTVSS	high polyreactivity
QVQLVESGGGLVQAGGSLRLSCAASGRIFNYYAMGWYRQAPGKERELVAAISARGGSTYYADSVKGRFTISRDNAKNTVYLQMNSLKPEDTAVYYCAVSSGSYGYGYWGQGTQVTVSS	high polyreactivity
QVQLVESGGGLVQAGGSLRLSCAASGRTFAYNAMGWYRQAPGKERELVAAIRWSADSTYYADSVKGRFTISRDNAKNTVYLQMNSLKPEDTAVYYCARRRYVGAFSVATLDYWGQGTQVTVSS	high polyreactivity
